Results from paper PMC4764562, “The Sec7 N-terminal regulatory domains facilitate membrane-proximal activation of the Arf1 GTPase” (eLife, 2016).

Tests used:
[1] = target: full-length T. terrestris Sec7 (T. terrestris); experiment: SEC-MALS; 5 mg/ml, Wyatt WTC-050S5 gel filtration column with DAWN HELEOS-II and Optilab T-rEX detectors, room temperature; measured mass compared with that predicted from the sequence
[2] = target: construct corresponding to a predicted coiled-coil from the HDS4 domain of Sec7; experiment: as above
[3] = target: the molecule itself; experiment: as above
GST-Arf1 = target: T1, GST-Arf1 (Saccharomyces cerevisiae (strain ATCC …, UniProt P11076)); experiment: GST pulldown (also liposome pelleting); Arf1 loaded with GMPPNP or GDP; no stable nucleotide-dependent interaction seen (Arf1 is nevertheless a GEF substrate of Sec7ΔC)
T1 chain: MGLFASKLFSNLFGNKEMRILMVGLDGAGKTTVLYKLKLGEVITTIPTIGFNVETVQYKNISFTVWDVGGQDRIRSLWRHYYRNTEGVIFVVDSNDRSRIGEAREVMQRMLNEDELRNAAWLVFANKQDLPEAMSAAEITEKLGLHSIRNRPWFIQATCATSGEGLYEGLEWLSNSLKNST

Molecule “full-length T. terrestris Sec7 (natural protein)” has a stoichiometry N [1] of 2.

“construct corresponding to a predicted coiled-coil from the HDS4 domain of Sec7 (domain or fragment)” gave a stoichiometry N [2] of 2.

B1: S. cerevisiae Sec7f (residues 203-2009) (domain or fragment, UniProt P11075 203-2009, looked up)
chain: PRSTHTRNISLSSNGSNTNSTIILVKTTLETILNDKDIKKNSNAQKAIERTLQKFKEFDPQTTNNPHYVDSILVFEALRASCRTKSSKVQSLALDCLSKLFSFRSLDETLLVNPPDSLASNDQRQDAADGITPPPKQKIIDAAIDTISDCFQGEGTDDRVELQIVRALSSCILEEDSSSLCHGASLLKAIRTIYNVFVFSLNPSNQGIAQATLTQIISSVYDKIDLKQSTSSAVSLSTKNHQQQSAIELSEASENAETPAPLTLENMDKLNDDEERLMDAQQPDSIAITNQDLAVKDAFLVFRVMAKICAKPLETELDMRSHAVRSKLLSLHIIYSIIKDHIDVFLSHNIFLPGKERVCFIDSIRQYLRLVLSRNAASPLAPVFEVTLEIMWLLIANLRADFVKEIPVFLTEIYFPISELTTSTSQQKRYFLSVIQRICNDPRTLVEFYLNYDCNPGMPNVMEITVDYLTRLALTRVEITQTQRSYYDEQISKSLSTYNFSQLPLLTSSNLSSSPDVGQVNLLFPLDFALKMVSLNCIVSVLRSLSSWAHKALNPNTHTANKVLLNTTSSARQESRSSLSNDVRSSIMTSNDDFKPTYEDEESRSLSSQNIDADDPTQFENLKLRKTALSECIAIFNNKPKKAIPVLIKKGFLKDDSPISIAKWLLETEGLDMAAVGDYLGEGDDKNIAIMHAFVDEFDFTGMSIVDALRSFLQSFRLPGEGQKIDRFMLKFAERFVDQNPGVFSKADTAYVLSYSLIMLNTDLHSSQIKNKMSLQEFLENNEGIDNGRDLPRDFLEGLFNEIANNEIKLISEQHQAMLSGDTNLVQQQQSAFNFFNSRDLTREAYNQVSKEISSKTELVFKNLNKNKGGPDVYYAASHVEHVKSIFETLWMSFLAALTPPFKDYDDIDTTNKCLEGLKISIKIASTFRINDARTSFVGALVQFCNLQNLEEIKVKNVNAMVILLEVALSEGNYLEGSWKDILLVVSQMERLQLISKGIDRDTVPDVAQARVANPRVSYESSRSNNTSFFDVWGKKATPTELAQEKHHNQTLSPEISKFISSSELVVLMDNIFTKSSELSGNAIVDFIKALTAVSLEEIESSENASTPRMFSLQKMVDVCYYNMDRIKLEWTPLWAVMGKAFNKIATNSNLAVVFFAIDSLRQLSMRFLDIEELSGFEFQHDFLKPFEYTVQNSGNTEVQEMIIECFRNFILTKSESIKSGWKPILESLQYTARSSTESIVLKTQLLVSNDIVTNHFENVFSQEDAFSELVGVFREITKNKRFQKLSLHALESLRKMTQNVADICFYNENKTEEERKHNDALLRGKDIFQDVWFPMLFCFNDTIMTAEDLEVRSRALNYMFDALVAYGGKFNDDFWEKICKKLLFPIFGVLSKHWEVNQFNSHDDLSVWLSTTLIQALRNLIALFTHYFESLNRMLDGFLGLLVSCICQENDTIARIGRSCLQQLILQNVSKFNEYHWNQIGDVFDKLFDLTTANELFDYDPLQQGRKSSVSHHQTTNDTSQHSDDDSNDRRENDSNISETVERAHQEESSEDVGGDMVETLNGQTKLNNGNSVPTVKDELNPKPASLSIPKKTKHMKRNESNEDIRRRINIKNSIVVKCVLQLLMIELLNELFENEDFAHCIPYKEAIRITRLLEKSYEFSRDFNEDYGLRTRLVEARVVDKIPNLLKQETSAAAVLLDIMFQLYLNDDEKKADLITRLITICIQVVEGYVSLDDRTMERSINAWRSVIVEILQGYYEFDDEDFRLYCPAMYALVIQILDKSVPTELRHAIKQFLSRVGELYLSTD
notes: Sec7 (Arf-GEF) of S. cerevisiae, residues 203-2009; source: E. coli, purified (Ni-NTA, MonoQ, Superdex 200)
B1 was tested, and the “stoichiometry N” value [3] was 2.

B2: S. cerevisiae Sec7 DCB/HUS domain construct (domain or fragment)
chain: PRSTHTRNISLSSNGSNTNSTIILVKTTLETILNDKDIKKNSNAQKAIERTLQKFKEFDPQTTNNPHYVDSILVFEALRASCRTKSSKVQSLALDCLSKLFSFRSLDETLLVNPPDSLASNDQRQDAADGITPPPKQKIIDAAIDTISDCFQGEGTDDRVELQIVRALSSCILEEDSSSLCHGASLLKAIRTIYNVFVFSLNPSNQGIAQATLTQIISSVYDKIDLKQSTSSAVSLSTKNHQQQSAIELSEASENAETPAPLTLENMDKLNDDEERLMDAQQPDSIAITNQDLAVKDAFLVFRVMAKICAKPLETELDMRSHAVRSKLLSLHIIYSIIKDHIDVFLSHNIFLPGKERVCFIDSIRQYLRLVLSRNAASPLAPVFEVTLEIMWLLIANLRADFVKEIPVFLTEIYFPISELTTSTSQQKRYFLSVIQRICNDPRTLVEFYLNYDCNPGMPNVMEITVDYLTRLALTRVEITQTQRSYYDEQISKSLSTYNFSQLPLLTSSNLSSSPDVGQVNLLFPLDFALKMVSLNCIVSVLRSLSSWAHKALNPNTHTANKVLLNTTSSARQESRSSLSNDVRSSIMTSNDDFKPTYEDEESRSLSSQNIDADDPTQFEN
B2 was tested, and the “stoichiometry N” value [3] was 2.

B3: S. cerevisiae Sec7ΔC (residues 203-1017) (domain or fragment, UniProt P11075 203-1017, looked up)
chain: PRSTHTRNISLSSNGSNTNSTIILVKTTLETILNDKDIKKNSNAQKAIERTLQKFKEFDPQTTNNPHYVDSILVFEALRASCRTKSSKVQSLALDCLSKLFSFRSLDETLLVNPPDSLASNDQRQDAADGITPPPKQKIIDAAIDTISDCFQGEGTDDRVELQIVRALSSCILEEDSSSLCHGASLLKAIRTIYNVFVFSLNPSNQGIAQATLTQIISSVYDKIDLKQSTSSAVSLSTKNHQQQSAIELSEASENAETPAPLTLENMDKLNDDEERLMDAQQPDSIAITNQDLAVKDAFLVFRVMAKICAKPLETELDMRSHAVRSKLLSLHIIYSIIKDHIDVFLSHNIFLPGKERVCFIDSIRQYLRLVLSRNAASPLAPVFEVTLEIMWLLIANLRADFVKEIPVFLTEIYFPISELTTSTSQQKRYFLSVIQRICNDPRTLVEFYLNYDCNPGMPNVMEITVDYLTRLALTRVEITQTQRSYYDEQISKSLSTYNFSQLPLLTSSNLSSSPDVGQVNLLFPLDFALKMVSLNCIVSVLRSLSSWAHKALNPNTHTANKVLLNTTSSARQESRSSLSNDVRSSIMTSNDDFKPTYEDEESRSLSSQNIDADDPTQFENLKLRKTALSECIAIFNNKPKKAIPVLIKKGFLKDDSPISIAKWLLETEGLDMAAVGDYLGEGDDKNIAIMHAFVDEFDFTGMSIVDALRSFLQSFRLPGEGQKIDRFMLKFAERFVDQNPGVFSKADTAYVLSYSLIMLNTDLHSSQIKNKMSLQEFLENNEGIDNGRDLPRDFLEGLFNEIANNEIKLISEQH
notes: Sec7 of S. cerevisiae, residues 203-1017 (DCB/HUS and GEF domains); also called Sec7(203-1017); construct lacking the HDS1-4 domains with the GEF domain; source: E. coli, purified (Ni-NTA, MonoQ, Superdex 200)
B3 was tested, and the “stoichiometry N” value [3] was 2 and the binding result (GST-Arf1) was “no binding”.

B4: S. cerevisiae Gea2 full-length (natural protein, UniProt P39993 1-1459, looked up)
chain: MSDREFVTVDPVTIIIKECINLSTAMRKYSKFTSQSGVAALLGGGSEIFSNQDDYLAHTFNNLNTNKHNDPFLSGFIQLRLMLNKLKNLDNIDSLTILQPFLLIVSTSSISGYITSLALDSLQKFFTLNIINESSQNYIGAHRATVNALTHCRFEGSQQLSDDSVLLKVVFLLRSIVDSPYGDLLSNSIIYDVLQTILSLACNNRRSEVLRNAAQSTMIAVTVKIFSKLKTIEPVNVNQIYINDESYTNDVLKADTIGTNVESKEEGSQEDPIGMKVNNEEAISEDDGIEEEHIHSEKSTNGAEQLDIVQKTTRSNSRIQAYADDNYGLPVVRQYLNLLLSLIAPENELKHSYSTRIFGLELIQTALEISGDRLQLYPRLFTLISDPIFKSILFIIQNTTKLSLLQATLQLFTTLVVILGNNLQLQIELTLTRIFSILLDDGTANNSSSENKNKPSIIKELLIEQISILWTRSPSFFTSTFINFDCNLDRADVSINFLKALTKLALPESALTTTESVPPICLEGLVSLVDDMFDHMKDIDREEFGRQKNEMEILKKRDRKTEFIECTNAFNEKPKKGIPMLIEKGFIASDSDKDIAEFLFNNNNRMNKKTIGLLLCHPDKVSLLNEYIRLFDFSGLRVDEAIRILLTKFRLPGESQQIERIIEAFSSAYCENQDYDPSKISDNAEDDISTVQPDADSVFILSYSIIMLNTDLHNPQVKEHMSFEDYSGNLKGCCNHKDFPFWYLDRIYCSIRDKEIVMPEEHHGNEKWFEDAWNNLISSTTVITEIKKDTQSVMDKLTPLELLNFDRAIFKQVGPSIVSTLFNIYVVASDDHISTRMITSLDKCSYISAFFDFKDLFNDILNSIAKGTTLINSSHDDELSTLAFEYGPMPLVQIKFEDTNTEIPVSTDAVRFGRSFKGQLNTVVFFRIIRRNKDPKIFSKELWLNIVNIILTLYEDLILSPDIFPDLQKRLKLSNLPKPSPEISINKSKESKGLLSTFASYLKGDEEPTEEEIKSSKKAMECIKSSNIAASVFGNESNITADLIKTLLDSAKTEKNADNSRYFEAELLFIIELTIALFLFCKEEKELGKFILQKVFQLSHTKGLTKRTVRRMLTYKILLISLCADQTEYLSKLINDELLKKGDIFTQKFFATNQGKEFLKRLFSLTESEFYRGFLLGNENFWKFLRKVTAMKEQSESIFEYLNESIKTDSNILTNENFMWVLGLLDEISSMGAVGNHWEIEYKKLTESGHKIDKENPYKKSIELSLKSIQLTSHLLEDNNDLRKNEIFAIIQALAHQCINPCKQISEFAVVTLEQTLINKIEIPTNEMESVEELIEGGLLPLLNSSETQEDQKILISSILTIISNVYLHYLKLGKTSNETFLKILSIFNKFVEDSDIEKKLQQLILDKKSIEKGNGSSSHGSAHEQTPESNDVEIEATAPIDDNTDDDNKPKLSDVEKD
notes: Gea2, early-Golgi Arf-GEF of S. cerevisiae, full length
In the case of B4, the “stoichiometry N” value [3] is reported as 2.
